Experimental data reported in patent US8252764B2, “Compositions and methods of use of targeting peptides against placenta and adipose tissues” (priority 2000, dated 2012).
Bridge positions count the residues as written; N and C are the ends. Square brackets hold non-standard residues; d marks the D form. Ends that are not written are not given here. Peptide text beside a SMILES is read from it. * marks the point of attachment. Cbz = O=C(OCc1ccccc1)*; CH2F = FC*

Key:
HUVEC cells = experiment: Apoptosis assay in HUVEC (propidium iodide, chromatin fragmentation); type: cell-based, human
Procedure: FIG. 26. Penetratin peptide chimera binding to the β5 cytoplasmic domain induces programmed cell death. 10^6 HUVEC cells were harvested in complete media and 15 μM penetratin peptide chimeras were added to the cells. […] (a) Profile obtained with starved cells after 24 h. (b) Confluent cells in complete media. (c) 15 μM of penetratin after four hours. (d) 15 μM of VISY-penetratin chimera after four hours.
FIG. 30. Chimeric peptide containing VISY peptide linked to penetratin (antennapedia) induces apoptosis. VISY induced apoptosis was inhibited by addition of a caspase inhibitor (zVAD).
Approximately 1×10^6 cells were harvested in complete media and 15 AM of peptide added for 4, 8, or 12 h. The cellswere then washed in PBS and resuspended in 0.5 ml propidium iodide solution (50 μg/ml PI, 0.1% Triton X-100, 0.1% sodium citrate). After a 24-h incubation at 4° C., cells were counted with a XL Coulter (Coulter Corporation) with a 488-nm laser; 12,000 cells were counted for each histogram, and cell cycle distributions were analyzed with Multicycle program.
Approximately 1×10^6 cells were harvested in complete medium, and 15 μM of peptide was added for 4, 8, or 12 hours. The cells were then washed in PBS and resuspended in 0.5 ml propidium iodide solution (50 μg/ml PI, 0.1% Triton X-100, 0.1% sodium citrate). After a 24-h incubation at 4° C., the cells were counted with an XL Coulter (Coulter Corporation) with a 488 nm laser; 12,000 cells were counted for each histogram, and cell cycle distributions were analyzed with the Multicycle program.
10^6 HUVEC were treated with 15 μM of VISY antennapedia (penetratin) chimera or 15 μM of antennapedia peptide (pentratin) alone for 2-4 hours and chromatin fragmentation was analyzed by electrophoresis in an agarose gel.

[1] = molecular target: T1, β5 integrin cytoplasmic domain (Homo sapiens, UniProt P18084); experiment: Binding of Fyn-phosphorylated phage to β5 cytoplasmic domain; conditions: for Phos/Unphos: Fyn-phosphorylated versus unphosphorylated phage; for β3 or β5/BSA / β3 or β5/GST: X4YX4 library phosphorylated with Fyn
T1 construct: screenings involving the β5 cytoplasmic domain fusion protein
T1 sequence (P18084 743-799 limits assumed): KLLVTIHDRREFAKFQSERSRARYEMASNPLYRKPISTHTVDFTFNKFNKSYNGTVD
Procedure: (§1) Phosphorylation of peptide libraries with src family protein kinases (Fyn, c-Src, Lyn, and Syc) and serine/threonine kinases such as a MAP kinase were performed as described previously (Schmitz et al., 1996; Dente et al., 1997; Gram et al., 1997). Briefly, phage particles were collected from culture supernatants by double precipitation with 20% polyethylene glycol 8000 in 2.5 M NaCl. Particles were dissolved at 10^12 particles/ml. Purified phage (10 μl) were incubated for 3 hours at room temperature with different concentrations (35 to 3,500 units) of protein kinases in a reaction buffer volume of 50 μl. The reaction mixtures were transferred to tubes containing 10 μg of agarose-conjugated anti-P-Tyr, anti-P-Ser, or anti-P-Thr monoclonal antibodies to select phage displaying phosphorylated peptides. Bound phage were eluted by washing the column with 0.3 ml of elution buffer (0.1 M NaCl/glycine/1 mg/ml BSA, pH 2.35). The eluates were neutralized with 2 M Tris-base and incubated with 2 ml of a mid-log bacteria culture. Aliquots of 20 μl were removed for plating, and phage were harvested as described. The phosphorylation-selection step was repeated. Phosphorylated peptides binding to β3 and β5 cytoplasmic domains were analyzed as described in the previous section.
(§2) Randomly selected clones from rounds III and IV were sequenced from a X4YX4 phosphorylated library with Fyn. Amino acid sequences of the phagemid encoded peptides were deduced from nucleotide sequences. […] The ratio of binding to β3 or β5 was calculated by dividing the number of β3 or β5 colonies by GST or BSA colonies found after panning. The ratio of binding to β3 or β5 with phosphorylated phage by Fyn versus unphosphorylated phage was calculated by dividing the number of colonies found after the panning.
(§3) The effect of phosphorylation on the affinity and specificity of the cytoplasmic domain-binding was examined. Phage displaying the β3 and β5 cytoplasmic domain-binding peptides were phosphorylated in vitro as previously described (Schmitz et al., 1996; Dente et al., 1997; Gram et al., 1997), using Fyn kinase. Specific phosphorylation of the tyrosine-containing peptide on the surface of the phage was confirmed by using ^32P-gamma […] in the kinase reaction and by separating the phage pIII protein by SDS-PAGE.

[2] = molecular target: T2, β3 integrin cytoplasmic domain (Homo sapiens, UniProt P05106); experiment: Binding of Fyn-phosphorylated phage to β3 cytoplasmic domain; conditions: for Phos/Unphos: Fyn-phosphorylated versus unphosphorylated phage; for β3 or β5/BSA / β3 or β5/GST: X4YX4 library phosphorylated with Fyn
T2 sequence (P05106 742-788 limits assumed): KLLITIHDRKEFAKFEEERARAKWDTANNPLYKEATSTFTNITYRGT
Procedure: as §1, §2, §3

SK-RC-49/APA cells = experiment: Phage binding specificity assay on SK-RC-49/APA cells; type: cell-based; conditions: phage displaying the peptide insert, data not shown
Procedure: The cell binding assay was performed with an input of 10^9 TU as described for the cell panning. The specificity was confirmed by adding […] (SEQ ID NO:56) peptide to the binding medium in increasing concentrations. For phage binding on immunocaptured APA, wells were blocked for 1 h at room temperature with PBS/3% BSA and incubated with 10^9 TU for 1 h at room temperature in 50 μl PBS/3% BSA. After eight washes in PBS/1% BSA/0.01% Tween-20 and two washes in PBS, phage were rescued by adding 200 μl of exponentially growing K91Kan E. coli. Each experiment was repeated at least three times.

[3] = molecular target: T3, prohibition receptor protein complex (Mus musculus, UniProt P67778); experiment: Adipose receptor protein binding and immunoprecipitation
T3 construct: from tissue; host or cells: mouse adipose tissue extract
T3 sequence (P67778 2-272 limits assumed): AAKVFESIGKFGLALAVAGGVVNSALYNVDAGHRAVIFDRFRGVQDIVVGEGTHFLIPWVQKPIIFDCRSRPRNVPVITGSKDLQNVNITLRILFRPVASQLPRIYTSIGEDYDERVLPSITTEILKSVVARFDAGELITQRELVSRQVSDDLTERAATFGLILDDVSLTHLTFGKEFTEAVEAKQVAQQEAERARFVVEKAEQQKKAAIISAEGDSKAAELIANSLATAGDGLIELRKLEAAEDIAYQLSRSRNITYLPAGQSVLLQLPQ
Procedure: A band of approximately 35,000 Daltons (35 kDa) was isolated from mouse adipose tissue extract that bound to […] (SEQ ID NO:22) conjugated to (KLAKLAK)2 (SEQ ID NO:1). […] The 35 kDa band was analyzed by mass spectrometry, which identified three proteins present in the sample.
The three proteins included predominately a B cell receptor associated protein (prohibition), apolipoprotein E, and the voltage dependent anion channel (VDAC). Further studies were performed by immunoprecipitation, using either […] (SEQ ID NO:22) or CARAC (SEQ ID NO:12) conjugated to (KLAKAK)2 (SEQ ID NO:1) and precipitating with commercially available antibodies.
It is unknown whether those proteins bound to the CARAC (SEQ ID NO:12) moiety or to (KLAKAK)2 (SEQ ID NO:1).

fat vasculature = type: in vivo
Procedure: FIG. 10. Treatment of mouse obesity with fat vasculature-targeted apoptosis. Three cohorts (n=3) of (A) high-fat cafeteria diet-fed obese c57bl/6 mice; or (B) regular diet-fed old (˜1 year) c57bl/6 mice were each subcutaneously injected daily with equimolar amounts of the indicated peptides. Mouse body mass measurement was taken on days when injections were performed (injections were skipped on days for which body mass measurement is not shown). Error bars are SEM for the measurements in three mice.
FIG. 11. Fat resorption induced by fat vasculature-targeted apoptosis. (A) Representative high-fat cafeteria diet-fed obese c57bl/6 mice; (B) and (C) representative regular diet-fed old (˜1 year) c57bl/6 mice; or (D) epididymal fat from representative regular diet-fed old c57bl/6 mice from the experiment described in FIG. 10. Whole mice (A), subcutaneous fat (B), peritoneal fat (C) and total epididymal fat (D) from the corresponding indicated treatments were photographed 1 week (A) or 3 weeks (B), (C) and (D) after the beginning of subcutaneous injections. The injected peptides were […] (SEQ ID NO:22) linked to (KLAKLAK)2 (SEQ ID NO:1) (left column), CARAC (SEQ ID NO:12) linked to (KLAKLAK)2 (SEQ ID NO:1) (middle column), and […] (SEQ ID NO:22) co-administered with (KLAKLAK)2 (SEQ ID NO:1) (right column).
FIG. 12. Destruction of fat blood vessels as a result of targeted apoptosis. (A) Tunnel immunohistochemistry, (B) secondary antibody only negative tunnel staining control and (C) and (D) hematoxylin/eosin staining of white fat of mice. (A), (B) and (C) Mice were treated with […] (SEQ ID NO:22) linked to (KLAKLAK)2 (SEQ ID NO:1). (D) Mice were treated with CARAC (SEQ ID NO:12) linked to (KLAKLAK)2 (SEQ ID NO:1). Apoptosis (arrows, (A)) and necrosis/lymphocyte infiltration (arrows, (C)) in response to […] (SEQ ID NO:22) linked to (KLAKLAK)2 (SEQ ID NO:1) treatment are indicated. Bar: 10 μm.
Stocks of […] (SEQ ID NO:22) fused to (KLAKLAK)2 (SEQ ID NO:1); (KLAKLAK)2 (SEQ ID NO:1) alone; CARAC (SEQ ID NO:12) fused to (KLAKLAK)2 (SEQ ID NO:1); and […] (SEQ ID NO:22) peptide were chemically synthesized, cyclized using the terminal cysteines and HPLC-purified to >90% (Anaspec). Lyophilized peptides were dissolved in DMSO to a concentration of 65 mM to make stock solutions. A total of 150 μl of 0.65 mM peptide solution in PBS was subcutaneously injected daily in the back of C57BL/6 males, after body mass was measured each day. High-fat cafeteria diet for obesity induction (TD97366: 25.4% fat, 21.79% protein, 38.41% carbohydrate) was purchased from Harlan Teklad. Mice were pre-fed with TD97366 prior to the initiation of treatment with adipose targeting peptides to induce diet-related obesity.

## VISY-penetratin chimera: VVISYSMPD (β5 cytoplasmic domain-binding peptide) coupled to penetratin, plus a biotin moiety (VVISYSMPDRQIKIWFQNRRMKWKK; also: biotin moiety, place not given here)
HUVEC cells; 10^6 HUVEC, 15 μM, 2-4 hours
  induction of apoptosis (chromatin fragmentation): induction of apoptosis
HUVEC cells; HUVEC, 15 μM, four hours
  induction of apoptosis (propidium iodide staining): induction of apoptosis

## TMLRYFMFP
[1]
  Phos/Unphos: 4.2
  β3 or β5/BSA: 3.8
  β3 or β5/GST: 2.3

## MLLGYRFEK
[2]
  Phos/Unphos: 2.5
  β3 or β5/BSA: 2.7
  β3 or β5/GST: 3.5

## CGTGCAVECEVVC
SK-RC-49/APA cells
  selective binding of phage to SK-RC-49/APA cells: no selective binding

## TLRKYFHSS
[1]
  Phos/Unphos: 3.8
  β3 or β5/BSA: 15.2
  β3 or β5/GST: 3.8

## CKGGRAKDC
[3]; immunoprecipitation, SDS-PAGE, data not shown
  enrichment of prohibition receptor protein complex in precipitated fraction compared to CARAC precipitated fraction: over a ten-fold enrichment

## GGGSYRHVE
[2]
  Phos/Unphos: 13.2
  β3 or β5/BSA: 5.3
  β3 or β5/GST: 1.5

## TMLRYTVRL
[1]
  Phos/Unphos: 14.3
  β3 or β5/BSA: 2.2
  β3 or β5/GST: 3.4

## CARAC-(KLAKLAK)2: control CARAC (SEQ ID NO:12) fused to (KLAKLAK)2 (SEQ ID NO:1) (CARACKLAKLAKKLAKLAK) [reference compound]
Fat vasculature; TUNEL, hematoxylin/eosin
  histopathological analysis of white fat: no vascular apoptosis or fat necrosis
Fat vasculature; high-fat cafeteria diet-fed obese C57BL/6 mice, equimolar amount, sc daily
  body mass change (in words): did not show a significant body mass decrease
[3]; data not shown
  binding of 35 kDa band from mouse adipose tissue extract: much less binding
[3]; immunoprecipitation
  binding to VDAC, prohibition and apolipoprotein E: low levels of non-specific binding to all three proteins

## CC(C)C[C@@H](NC(=O)[C@@H](CCCCN)NC(=O)CNC(=O)CNC(=O)[C@@H]1CSSC[C@H](N)C(=O)N[C@@H](CCCCN)C(=O)NCC(=O)NCC(=O)N[C@@H](CCCNC(=N)N)C(=O)N[C@@H](C)C(=O)N[C@@H](CCCCN)C(=O)N[C@@H](CC(=O)O)C(=O)N1)C(=O)N[C@H](C)C(=O)N[C@H](CCCCN)C(=O)N[C@H](CC(C)C)C(=O)N[C@H](C)C(=O)N[C@H](CCCCN)C(=O)N[C@H](CCCCN)C(=O)N[C@H](CC(C)C)C(=O)N[C@H](C)C(=O)N[C@H](CCCCN)C(=O)N[C@H](CC(C)C)C(=O)N[C@H](C)C(=O)N[C@H](CCCCN)C(=O)O (H-CKGGRAKDCGG[dK][dL][dA][dK][dL][dA][dK][dK][dL][dA][dK][dL][dA][dK]-OH; disulfide 1-9)
Fat vasculature; genetically obese mice, not in normal obese mice
  mortality in genetically obese mice: occasionally observed to result in mortality within a few days of injection
Fat vasculature; mouse, in vivo
  abnormalities in other organs: No abnormalities in other organs

## COC(=O)C[C@H](NC(=O)[C@H](C)NC(=O)[C@@H](NC(=O)OCc1ccccc1)C(C)C)C(=O)CF [zVAD, reference compound] (Cbz-Val-Ala-Asp(OMe)-CH2F)
HUVEC cells; added to the media at the same time as the VISY chimeric peptide
  inhibition of VISY chimeric peptide induced apoptosis: up to 70%
